From patent publication US20170152288A1 (published 2017) come the findings set out here.

For the test, the target named is T1, rProtein A Sepharose FF (Staphylococcus aureus, UniProt P38507 37-327, immobilized on Sepharose FF chromatography resin (commercial, GE Healthcare)).
T1 construct: all other ligands (L1-L78, A2P, MEP Hypercel) are small molecules; also called rProtA; rProtein A Sepharose 4 FF
The test can be described thus: batch adsorption in 96-well plates, Langmuir isotherm fit, Bradford assay of supernatant.

B1: Bevacizumab (Avastin, F. Hoffmann-La Roche, Switzerland) (antibody, V domains shown)
VH: EVQLVESGGGLVQPGGSLRLSCAASGYTFTNYGMNWVRQAPGKGLEWVGWINTYTGEPTYAADFKRRFTFSLDTSKSTAYLQMNSLRAEDTAVYYCAKYPHYYGSSHWYFDVWGQGTLVTVSS
VL: DIQMTQSPSSLSASVGDRVTITCSASQDISNYLNWYQQKPGKAPKVLIYFTSSLHSGVPSRFSGSGSGTDFTLTISSLQPEDFATYYCQQYSTVPWTFGQGTKVEIK
Consider B1, for which the dissociation constant Kd (commonly a measure of binding affinity in units of concentration) is 4.7 µg/mL.
